One block for each molecule: values may come before it.
Columns and labels:
CD73 on Calu6 cells = target: T1, CD73 on Calu6 cells (Homo sapiens, UniProt P21589); assay: Dual cell line HTRF cAMP assay (Calu-6 and HEK293/A2AR cells); type: cell-based
T1 construct: Calu6 (CD73 endogenous expressors; human pulmonary adenocarcinoma cell line); endogenous in cells; host or cells: Calu6, NCI-H292, SK-MEL-24, SNU-C1, NCI-H1437, H2228, HCC15, H2030 and further human tumour lines
T1 sequence (P21589 27-549): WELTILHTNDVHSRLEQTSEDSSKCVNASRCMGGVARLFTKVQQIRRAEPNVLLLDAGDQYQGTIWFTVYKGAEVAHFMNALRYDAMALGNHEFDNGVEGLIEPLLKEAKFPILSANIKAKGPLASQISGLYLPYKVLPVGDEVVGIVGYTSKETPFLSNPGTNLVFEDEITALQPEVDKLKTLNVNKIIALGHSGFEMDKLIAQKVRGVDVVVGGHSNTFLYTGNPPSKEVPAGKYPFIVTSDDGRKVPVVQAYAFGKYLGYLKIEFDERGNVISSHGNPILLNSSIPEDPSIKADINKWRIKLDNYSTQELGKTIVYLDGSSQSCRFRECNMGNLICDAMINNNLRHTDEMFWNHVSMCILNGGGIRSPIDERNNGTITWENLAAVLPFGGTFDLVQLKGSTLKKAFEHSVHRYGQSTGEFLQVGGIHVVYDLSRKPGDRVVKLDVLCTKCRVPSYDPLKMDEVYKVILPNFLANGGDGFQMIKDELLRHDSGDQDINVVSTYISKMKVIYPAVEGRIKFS
Method: Inhibition of CD73 Enzymatic Activity in a Dual Cell Line cAMP Assay Homogenous Time Resolved Fluorescence (HTRF) cAMP Assay
CD73 antibodies were serial diluted with PBS buffer containing 0.2% BSA, and plated 5 μl/well in 384 well white bottom proxiplate (PerkinElmer, Waltham, Mass.). Calu-6 cells were harvested and resuspend in PBS containing 0.2% BSA, then 5 μl of cells (300 cells/well) were added to the plate. The cells were incubated with antibodies for 10 minutes at 37° C. […] The cells were further incubated with AMP for 30 minutes at 37° C. During this time, HEK293/A2AR cells were harvested and diluted to 0.4 million/ml in PBS containing 0.2% BSA. […] HRTF assays were performed using the homogenous time-resolved fluorescence (HTRF) HiRange cAMP detection kit (Cisbio, Bedford, Mass.) by adding 10 μl/well cAMP-conjugated d2 and 10 μl/well europium cryptate conjugated anti-cAMP antibody in lysis buffer according to the manufacturer's instructions. Plates were incubated at room temperature for 60 minutes and Fluorescence Resonance Energy Transfer (FRET) signals (665 and 615 nM) were read using an EnVision plate reader (PerkinElmer, Waltham, Mass.). The FRET signal was calculated as the ratio of signal from the 665 nm (acceptor) and 615 nm (donor) channels and multiplied by 10.000. IC50 and Ymax were measured. […]

human FcγRs = assay: SPR binding profile to human FcγRs (panel); details: read-out: binding affinity to all other FcγRs
Method: Binding of the constructs to human FcγRs was measured via SPR. hCD64 and hCD32a-H131 binding data for IgG1.1 and IgG2 molecules were consistent with expected values for the different Fcs. IgG1.1f is the most inert Fc.
(§1) The binding of antibodies to Fc gamma receptors (FcγRs or FcgRs) was studied using biosensor technologies including Biacore surface plasmon resonance (SPR) and Fortebio Biolayer Interferometry (BLI). SPR studies were performed on a Biacore T100 instrument (GE Healthcare) at 25° C. The Fab fragment from a murine anti-6×His antibody was immobilized on a CM5 sensor chip using EDC/NHS to a density of ˜3000 RU. Various his-tagged FcgRs (7 ug/ml) were captured via the C-terminal his-tag using a contact time of 30 s at 10 ul/min, and the binding of 1.0 μM antibody was evaluated in a running buffer of 10 mM NaPO4, 130 mM NaCl, 0.05% p20 (PBS-T) pH 7.1. FcgRs used for these experiments included CD64 (FcgRI), CD32a-H131 (FcgRIIa-H131), CD32a-R131 (FcgRIIa-R131), CD32b (FcgRIIb), CD16a-V158 (FcgRIIIa-V158), CD16b-NA1 (FcgRIIIb-NA1), and CD16B-NA2 (FcgRIIIb-NA2). BLI experiments were performed on a Fortebio Octet RED instrument (Pall, Fortebio) at 25° C. in 10 mM NaPO4, 130 mM NaCl, 0.05% p20 (PBS-T) pH 7.1. Antibodies were captured out of undiluted expression supernatants on protein A coated sensors, followed by the binding of 1 μM hCD32a-H131, hCD32a-R131, hCD32b, hCD16a-V158, or 0.1 μM hCD64 analytes.
This engineering strategy was further explored by producing other antibodies formatted with IgG2.3G1-AY, IgG2.3G1-AY-S267E (IgG2.3G1-AY-V27), as well as IgG2-B-form variants (IgG2.5G1-AY and IgG2.5G1-AY-V27), and other hybrid antibodies containing different combinations of IgG1 and IgG2 constant domains, and testing the binding of these antibodies to anti-his Fab captured his-tagged FcgRs using Biacore SPR technology.

cyno FcγRs = assay: SPR binding to cyno FcγRs; parameters: species or system cynomolgus; details: read-out: binding affinity to cyno FcγRs
CD73 = target: T2, CD73 (Homo sapiens, UniProt P21589); assay: CD73 internalization at 1, 4 or 21 hours by CD73.4 with heavy chain constant region variants (FIG. 31); type: cell-based; parameters: endogenous in cells; details: CD73.4 variable regions with the named constant region
T2 sequence (P21589 27-549): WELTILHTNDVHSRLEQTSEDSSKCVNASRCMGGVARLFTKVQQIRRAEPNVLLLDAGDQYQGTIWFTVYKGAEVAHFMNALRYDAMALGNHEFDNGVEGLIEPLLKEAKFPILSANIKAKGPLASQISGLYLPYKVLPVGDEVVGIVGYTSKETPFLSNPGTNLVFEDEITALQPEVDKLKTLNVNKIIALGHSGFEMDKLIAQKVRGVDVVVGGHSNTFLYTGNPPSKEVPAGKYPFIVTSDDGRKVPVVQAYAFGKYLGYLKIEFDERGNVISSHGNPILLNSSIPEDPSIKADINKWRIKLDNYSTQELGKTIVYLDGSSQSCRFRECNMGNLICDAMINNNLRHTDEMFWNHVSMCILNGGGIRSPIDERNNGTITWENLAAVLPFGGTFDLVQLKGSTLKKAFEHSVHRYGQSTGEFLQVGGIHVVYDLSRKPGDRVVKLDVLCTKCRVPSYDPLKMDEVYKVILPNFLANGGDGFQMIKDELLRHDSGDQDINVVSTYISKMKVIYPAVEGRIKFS
Method: The bars for each antibody are shown in the order of 21 hours (on the left), 4 hours (middle) and 1 hour (right).
Anti-CD73 antibodies (CD73.4) with the heavy chain constant regions shown in Table 31 were prepared and tested as described above in antibody mediated CD73 internalization assays.

[1] = test system: hCD32a-H131, hCD32a-R131, hCD32b, hCD16a-V158, hCD64; assay: Fortebio Octet BLI binding of protein A-captured antibodies to FcgR analytes; parameters: species or system human; details: expression supernatants
Method: as §1
The next set of constructs was used to engineer effector function into the otherwise effector function negative IgG2 isotype. […]

CD73 on NCI-H292 cells = target: T3, CD73 on NCI-H292 cells (Homo sapiens, UniProt P21589); assay: Flow cytometry based cross-blocking on NCI-H292 cells; type: binding; details: FITC-labeled 11F11, NCI-H292 cells
T3 construct: endogenous in cells; host or cells: NCI-H292
T3 sequence (P21589 27-549): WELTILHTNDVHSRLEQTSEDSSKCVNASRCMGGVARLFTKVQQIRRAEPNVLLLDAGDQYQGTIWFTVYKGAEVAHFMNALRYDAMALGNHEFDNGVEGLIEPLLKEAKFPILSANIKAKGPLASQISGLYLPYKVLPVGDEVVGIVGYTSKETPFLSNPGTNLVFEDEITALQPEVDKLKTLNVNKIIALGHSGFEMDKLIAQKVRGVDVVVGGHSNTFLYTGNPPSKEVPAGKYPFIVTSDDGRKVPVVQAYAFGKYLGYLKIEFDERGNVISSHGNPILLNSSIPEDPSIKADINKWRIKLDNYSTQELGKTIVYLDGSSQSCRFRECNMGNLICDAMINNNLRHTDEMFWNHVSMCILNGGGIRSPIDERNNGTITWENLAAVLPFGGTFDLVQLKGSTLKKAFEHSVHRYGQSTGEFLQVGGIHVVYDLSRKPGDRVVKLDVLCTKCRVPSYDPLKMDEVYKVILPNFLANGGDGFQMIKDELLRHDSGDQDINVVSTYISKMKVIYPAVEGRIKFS
Method: The antibodies were also subjected to flow cytometry based cross-blocking. The experiment was conducted as follows using one set of labeled fluorescently labeled antibody and a second set of unlabeled antibody: 100000 NCI-H292 cells were seeded per well. The plate was spun down and the cells were resuspended in 100 uL 2% FBS in PBS per well. The cells were blocked on ice for 20 min. Unlabeled antibody, as indicated, in 2% FBS in PBS was added to each well. […] 6 wells of cells were incubated without antibody, and were resuspended in 100 uL 2% FBS in PBS only (for controls). The cells were then incubated on ice for 30 min. The cells were washed twice with 2% FBS in PBS and the samples were resuspended in 140 uL 2% FBS in PBS, and analyzed on a FacsCalibur flow cytometer (Becton Dickinson).

[2] = SEC-MALS oligomeric state of CD73 mAbs; type: physicochemical
Method: The oligomeric state of CD73 mAbs were examined by size-exclusion chromatography coupled to an in-line multi-angle light scattering detector (SEC-MALS). Isocratic separations were performed on a Shodex PROTEIN KW-803 column connected to an Prominence Shimadzu UFLC in buffer containing 200 mM K2HPO4, 150 mM NaCl, pH 6.8, containing 0.02% Na azide (0.1 μm filtered) running at 0.5 mL/min. Samples were injected onto the column using a SIL-20AC Prominence Shimadzu autosampler, and data were obtained from three online detectors connected in series: a Prominence SPD-20AD diode array UV/vis spectrophotometer followed by a Wyatt miniDAWN™ TREOS Multi-Angle Light Scattering Detector then a Wyatt Optilab T-rEX Refractive Index Detector. Data (as shown in Table 15 below) were collected and analyzed using Astra (Wyatt) and Labsolutions (Shimadzu) software.

Molecule: Nc1ncnc2c1ncn2[C@@H]1O[C@H](COP(=O)(O)CP(=O)(O)O)[C@@H](O)[C@H]1O [APCP]
- IC50 (CD73 on Calu6 cells; cAMP assay): 1.29 nM
- Ymax (CD73 on Calu6 cells; percentage of inhibition relative to 100 nM 11F11 set to 100%): 97

B1: IgG2.3/4: CD73.4 with IgG2 constant region with C219S/C220S (protein)
chain: ASTKGPSVFPLAPCSRSTSESTAALGCLVKDYFPEPVTVSWNSGALTSGVHTFPAVLQSSGLYSLSSVVTVPSSNFGTQTYTCNVDHKPSNTKVDKTVERKSSVECPPCPAPPVAGPSVFLFPPKPKDTLMISRTPEVTCVVVDVSHEDPEVQFNWYVDGVEVHNAKTKPREEQFNSTFRVVSVLTVVHQDWLNGKEYKCKVSNKGLPAPIEKTISKTKGQPREPQVYTLPPSREEMTKNQVSLTCLVKGFYPSDIAVEWESNGQPENNYKTTPPMLDSDGSFFLYSKLTVDKSRWQQGNVFSCSVMHEALHNHYTQKSLSLSPGK
modifications: Synthetic: IgG2.3/4
notes: CD73.4 with IgG2 constant region with C219S/C220S
- antibody mediated CD73 internalization (in words) (CD73): much reduced internalization compared to IgG2.3 or IgG2.4 alone

B3: 7A11: human anti-CD73 monoclonal antibody, IgG1za; VH SEQ ID NO: 88, VL SEQ ID NO: 92 (antibody, V domains shown)
VH: EVQLVESGGGLVQTGRSLRLSCAASGFTFDDYAMHWVRQAPGKGLEWVSDISWNSDIIGYADSVKGRFTISRDNAKNSLYLQMNSLRAEDTALYYCAKDIYGSGSSFFDYWGQGILVTVSS
VL: DIQMTQSPSSLSASVGDRVTITCRASQYISSWLAWYQQKPEKAPKSLIYAASSLQSGVPSRFSGSGSGTDFTLTISSLQPEDFATYYCQQYHSYPPTFGQGTRLEIK
modifications: Synthetic: 7A11 VH; Synthetic: 7A11 VK1
- competition with 11F11 (cross-blocking) (CD73 on NCI-H292 cells): competes with 11F11
- SEC % HMW [2]: 0.5%
- SEC % LMW [2]: 0.5%
- SEC % Monomer [2]: 98.5%

More lines, now with the values ahead:

- Kd (human FcγRs): < 5000 nM
- Kd (cyno FcγRs): > 5000 nM
Molecule: IgG2-C219S-G1.1f: effectorless IgG1/IgG2 hybrid constant region: CH1 and hinge from IgG2 (C219S), CH2 and CH3 of IgG1 (A330S/P331S); SEQ ID NO:169

- FcgR binding profile by BLI (in words) [1]: appreciable binding to only CD32a-H131
B2: IgG2.3: antibody with IgG2 constant region with C219S (protein)
constant: ASTKGPSVFPLAPCSRSTSESTAALGCLVKDYFPEPVTVSWNSGALTSGVHTFPAVLQSSGLYSLSSVVTVPSSNFGTQTYTCNVDHKPSNTKVDKTVERKSCVECPPCPAPPVAGPSVFLFPPKPKDTLMISRTPEVTCVVVDVSHEDPEVQFNWYVDGVEVHNAKTKPREEQFNSTFRVVSVLTVVHQDWLNGKEYKCKVSNKGLPAPIEKTISKTKGQPREPQVYTLPPSREEMTKNQVSLTCLVKGFYPSDIAVEWESNGQPENNYKTTPPMLDSDGSFFLYSKLTVDKSRWQQGNVFSCSVMHEALHNHYTQKSLSLSPGK
modifications: left off: another chain or arm of the molecule
notes: antibody with IgG2 constant region with C219S

Reference: US10100129B2, “Antibodies against CD73 and uses thereof” (BRISTOL-MYERS SQUIBB COMPANY, priority 2014, dated 2018)
